B1: Nt-acetylated Fyn peptide (peptide)
peptide: Ac-GCVQCKDKEAKKK-biotin
modifications: cysteine pairing not given here
notes: Fyn, N-terminal 10-mer without the initiator Met; Lys3 spacer that carries the C-terminal biotin; also called Nt-Ac Fyn; Ac-Fyn; source: synthetic peptide
B2: DDB1- and CUL4A-associated factor 10 (natural protein, human (endogenous in HeLa and DLD-1), UniProt Q5QP82 1-559, looked up)
chain: MFPFGPHSPGGDGSAGAGAEEPTPHEGQAAATGPPSPLHPGADATHPPPPARSPRRPGAPSLSPAPRSGELGLPGAPESSTASAPGEPSPPSPPCRRPGPDCRAKSRGRHGLGAGLGGPGARLFGWLKERSLGRGLFVDPARDNFRTMTSLYGSIHPADSVYLSTRTHGAVFNLEYSPDGSVLTVACEQTEVLLFDPISSKHIKTLSEAHEDCVNNIRFLDNRLFATCSDDTTIALWDLRKLNTKVCTLHGHTSWVKNIEYDTNTRLLVTSGFDGNVIIWDTNRYTEDGCPHKKFFHTRFLMRMRLTPDCSKMLISTSSGYLLILHDLDLTKSLEVGSYPILRARRTTSSSDLTTSSSSSGPRVSGSPCHHSDSNSSEKHMSRASQREGVSPRNSLEVVTPEVLGESDHGNCITSLQLHPKGWATLLRCSSNSDDEECTCVYEFQEGAPVRPVSPRCSLRLTHYIEEANVGRGYIKELCFSPDGRMISSPHGYGIRLLGFDKQCSELVDCLPKEASPLRVIRSLYSHNDVVLTTKFSPTHCQIASGCLSGRVSLYQPKF
notes: DCAF10, endogenous protein of human cell lysates; also called DCAF10; WDR32; source: endogenous, HeLa lysate; endogenous, DLD-1 Lyn KO Flp-In T-REx cell lysate
B3: Nt-acetylated Src peptide (peptide)
peptide: Ac-GSNKSKPKDAKKK-biotin
notes: Src, N-terminal 10-mer without the initiator Met; Lys3 spacer that carries the C-terminal biotin; also called Nt-Ac Src; Ac-Src; source: synthetic peptide
B4: Nt-acetylated Lyn peptide (peptide)
peptide: Ac-GCIKSKGKDSKKK-biotin
notes: Lyn, N-terminal 10-mer without the initiator Met; Lys3 spacer that carries the C-terminal biotin; also called Nt-Ac Lyn; Ac-Lyn; source: synthetic peptide

In one test the target is T1, GST-DCAF10 (UniProt Q5QP82 1-559).
T1 construct: DCAF10, full length; the UniProt entry is printed for the AlphaFold 3 model of the same protein; cloning and purification are in the Supplementary Methods; also called purified full-length GST-DCAF10; source: purified
T1 sequence (looked up): B2 chain
In words: pull-down; Nt-peptides bound to streptavidin beads incubated with purified GST-DCAF10 or GST alone; Western blots against GST, DCAF10 and streptavidin; n = 3. Conditions: both partners purified.

The next test addresses T2, Ac-Lyn^G2A peptide (human, UniProt P07948 2-11, G2A).
T2 construct: Lyn, N-terminal 10-mer without the initiator Met, G2A; Lys3 spacer that carries the C-terminal biotin; also called Ac-Ala peptide; source: synthetic peptide
T2 peptide: Ac-ACIKSKGKDSKKK-biotin
Nature of the test: affinity purification with mass spectrometry; biotinylated 10-mer Nt-peptides on magnetic streptavidin beads incubated with HeLa lysate; retained proteins digested on bead and quantified label-free by LC-MS (DIA); pairwise comparison of two peptides; n = 3. Conditions: one partner purified.

For test [1], the target named is B3. The test is described as above. Conditions: one partner purified.
The target of test [2] is B4. The test is described as above. Particulars: one partner purified.

For B1, the binding result with GST-DCAF10 was “binds”.
Turning to B2, in the test with Ac-Lyn^G2A peptide, the “fold lower than the Ac-Gly peptide (Ac-Lyn^WT)” value was 15 fold. In addition, the “log2 fold change (Nt-Ac against Nt-free Src peptide, Fig. 1c)” value in test [1] was approximately 5 log2. In test [2], the “fold stronger than Ac-THOC7” value is approximately 57 fold.
For the molecule B3, in the test with GST-DCAF10, the binding result is on record as “binds”.
Still for that read-out and setting: the same measure for B4: “binds”.

(Values after PMC12775124, “CUL4A-DDB1-DCAF10 is an N-recognin for N-terminally acetylated Src kinases” (Nature Communications, 2026).)
